In patent publication US20130017541 one finds binding signal and binding signal (fold preference over unmethylated oligo) data, which are given here for 3 substances.

The subject of data set [1] is DpnI biotinylated (bDpnI). In words: pulldown.
The subject of data set [2] is anti-N6-methyladenine mouse polyclonal antisera (Mus musculus). Put plainly: ELONA. Conditions: N6-methyladenine at position 6 (printed as marked A) [6 (N6-methyladenine)]; oligo ELISA, antisera 1:10,000. A general note: An ELISA detects its analyte on a solid surface through an enzyme-linked reagent.
In data set [3] the test system is anti-N6-methyladenine monoclonal antibody (best hybridoma) (Mus musculus). In words: ELONA. The settings on record: N6-methyladenine at position 6 (printed as marked A) [6 (N6-methyladenine)]; nearly 40 fold discrimination.

In turn, E. coli genomic DNA returned a binding signal in data set [1] (N6-methyladenine at GATC (dam), 10 ng E. coli DNA in 1 ug human DNA, at least 30% at pg input) greater than 80 % recovered.
As to GCAGGATCAACAGTCACACT [N6mA oligo], the binding signal (fold preference over unmethylated oligo) was greater than 10 in data set [2] and 40 in data set [3].
human genomic DNA returned a binding signal in data set [1] (1 ug human DNA, one wash, reduced to 1% with three washes) of 10 % recovered.
